Results on six molecules are retold here after PMC9729729, “Development of anti-membrane type 1-matrix metalloproteinase nanobodies as immunoPET probes for triple negative breast cancer imaging” (Frontiers in Medicine, 2022).

For experiment [1], the target named is T1, catalytic domain of human MT1-MMP (residues 119-290) (Homo sapiens, UniProt P50281).
T1 construct: membrane type 1-matrix metalloproteinase (MT1-MMP), human, catalytic domain, residues 119-290, expressed from pET3a; also called CAT-MT1-MMP; catalytic domain of membrane type 1-matrix metalloproteinase
The experiment is described as follows: ELISA; monoclonal phage ELISA; MaxiSorp plates coated with CAT-MT1-MMP, MT2-MMP or MT3-MMP at 4°C overnight (BSA as negative control); culture supernatants with phages applied; anti-M13-HRP, OPD, OD490. As to conditions: one partner purified. Background: An ELISA detects its analyte on a solid surface through an enzyme-linked reagent.

Experiment [2] concerns the target T1, catalytic domain of human MT1-MMP …. Nature of the experiment: ELISA; MaxiSorp plates coated overnight at 4°C with CAT-MT1-MMP; blocked with 3% BSA in PBS; serial dilutions of nanobodies, 90 min at 37°C; HRP anti-HA mAb, TMB, OD450. The note with it: both partners purified.
Experiment [3] concerns the target extracellular domain (ed) of MT1-MMP, Ala21-Ser538, Arg108Pro (Homo sapiens (species ; …, UniProt P50281, Arg108Pro). Nature of the experiment: SPR; edMT1-MMP amine-coupled on a CM5 chip (104 RU); nanobody 16-250 nM, 3 min at 30 μl/min, 30 min dissociation; HBS-EP+ buffer; 25°C; Biacore X100; 1:1 binding model. As to conditions: both partners purified. A general note: Surface plasmon resonance follows binding to a sensor surface in real time, without labels.

B1: 3TPA14 displayed on phage (monoclonal phage clone) (VHH)
VHH: QVQLQESGGGLVQAGGSLRLSCAASGLILSGFSTGWFRQAPGKEREFLSTISSAGTRTYYADSVKGRFTISRDNAKNTVYLQMNRLKPEDAGVYYCTGYGRRSMPALRPEEWTYWGQGTQVTVSS
notes: also called 3TPA14 phage clone; source: E. coli TG1 with phagemid, VCS-M13 helper phage, culture supernatant
As for B1, the binding result in experiment [1] is recorded as “binds”.

B2: [^68Ga]Ga-NOTA-3TPA14 (VHH)
VHH: B1 VHH
notes: also called radiolabeled-NOTA conjugate of 3TPA14; source: E. coli WK6 periplasm, purified, conjugated with p-SCN-Bn-NOTA and labelled with 68Ga, PD-10 purified
B2: in experiment [2], the binding result is given as “binds”.

B3: nanobody 3TPA14 (CDR3 group 1), purified (VHH)
VHH: B1 VHH
notes: Llama-derived VHH selected by phage display against CAT-MT1-MMP; also called Nb 3TPA14; source: E. coli WK6 periplasm (pMECS), purified (IMAC HisTrap, SEC Superdex 75)
Turning to B3, the binding result in experiment [2] is “binds”. The Kd (in general, a measure of binding affinity in units of concentration) in experiment [3] was 15.8 ± 0.3 nM.

B4: 3CMP75 displayed on phage (monoclonal phage clone) (VHH)
VHH: QVQLQESGGGLVQAGGSLRLSCTASGRTFSSNAMAWFRLAPGKEREFVAAISGNGGSTTYADSVKGRVTISRDNAKNTVYLHMSSLKPEDTAVYYCNQRNFGRDGTLGDYWGNGTQVTVSS
notes: also called 3CMP75 phage clone; source: E. coli TG1 with phagemid, VCS-M13 helper phage, culture supernatant
Regarding B4, the binding result in experiment [1] was “binds”.

B5: nanobody 3CMP75 (CDR3 group 6), purified (VHH)
VHH: B4 VHH
notes: Llama-derived VHH selected by phage display against CAT-MT1-MMP; also called Nb 3CMP75; 2CMP75 (as printed in two methods paragraphs); source: E. coli WK6 periplasm (pMECS), purified (IMAC HisTrap, SEC Superdex 75)
For the molecule B5, the binding result in experiment [2] is reported as “binds”. The Kd in experiment [3] was determined as 35 ± 3 nM.

B6: [^68Ga]Ga-NOTA-3CMP75 (VHH)
VHH: B4 VHH
notes: also called radiolabeled-NOTA conjugate of 3CMP75; source: E. coli WK6 periplasm, purified, conjugated with p-SCN-Bn-NOTA and labelled with 68Ga, PD-10 purified
Consider B6, for which, in experiment [2], the binding result is reported as “binds”.
